Here are results for 6 molecules from patent US20240269312A1, “ANTIBODY DRUG CONJUGATE, AND PREPARATION METHOD THEREFOR AND USE THEREOF” (SICHUAN KELUN-BIOTECH BIOPHARMACEUTICAL CO., LTD., priority 2021, published 2024).

Test [1] concerns the target human ROR1 ECD protein (Homo sapiens, UniProt Q01973). Put plainly: Dynamic affinity determination by Octet ForteBio. It is filed as binding. Conditions: for kdis / kon: 1:1 kinetic binding model, UC961 value is an average of three determinations. Here is the method:
The dynamic affinities of 19F6_Hu35V1, 3D8_HuC24, 38F8_Hu57 and the positive control PGP-1501 antibody UC961 to human ROR1 ECD protein were determined by Octet ForteBio method. The specific experimental steps were as follows: the anti-human IgG Fc AHC probe (ForteBio) was first bound to the antibody to be tested to a response signal value of 0.8-1.2 nm, and the dynamic affinity was measured by immersing the antibody-coated probe into wells containing human ROR ECD protein at different concentrations (16, 8, 4, 2, 1, 0.5, 0.25, and 0 μg/mL), the binding was conducted for 2-4 minutes, followed by dissociation for 4-6 minutes, 1:1 kinetic binding model was used for all fitting analysis.

The target in test [2] is human ROR1 (on the cell surface) (human) (UniProt Q01973). Nature of the test: flow cytometry, Ba/F3-ROR1 cells, D10 as detection antibody.
Chain of human ROR1 (on the cell surface) (human) (Q01973 30-937): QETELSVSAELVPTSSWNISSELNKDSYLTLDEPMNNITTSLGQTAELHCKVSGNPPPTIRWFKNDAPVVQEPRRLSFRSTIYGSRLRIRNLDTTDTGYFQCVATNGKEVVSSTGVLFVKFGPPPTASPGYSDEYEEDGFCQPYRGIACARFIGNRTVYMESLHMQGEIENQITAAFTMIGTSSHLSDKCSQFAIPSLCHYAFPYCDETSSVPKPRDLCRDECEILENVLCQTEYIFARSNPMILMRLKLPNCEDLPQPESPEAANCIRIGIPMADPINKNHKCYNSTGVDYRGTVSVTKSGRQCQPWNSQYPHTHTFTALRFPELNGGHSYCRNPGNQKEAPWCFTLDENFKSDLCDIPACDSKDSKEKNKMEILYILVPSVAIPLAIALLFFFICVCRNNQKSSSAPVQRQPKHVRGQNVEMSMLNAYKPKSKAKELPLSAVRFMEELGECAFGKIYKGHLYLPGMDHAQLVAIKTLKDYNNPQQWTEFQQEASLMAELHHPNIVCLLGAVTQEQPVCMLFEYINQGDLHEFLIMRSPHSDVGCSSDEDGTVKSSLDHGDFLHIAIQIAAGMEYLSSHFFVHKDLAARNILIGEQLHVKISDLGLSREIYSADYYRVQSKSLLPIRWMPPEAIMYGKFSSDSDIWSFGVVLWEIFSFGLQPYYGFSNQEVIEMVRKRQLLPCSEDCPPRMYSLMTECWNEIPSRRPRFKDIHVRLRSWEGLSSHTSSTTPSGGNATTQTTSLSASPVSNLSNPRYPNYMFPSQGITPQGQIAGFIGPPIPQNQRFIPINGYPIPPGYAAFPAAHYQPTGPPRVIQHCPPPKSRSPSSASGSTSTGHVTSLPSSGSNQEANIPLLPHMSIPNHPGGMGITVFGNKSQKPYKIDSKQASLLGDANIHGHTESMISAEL
Test [3] concerns the target T1, human ROR1 ECD protein (human, UniProt Q01973 30-406).
T1 construct: extracellular domain; also called human ROR ECD protein
Put plainly: BLI (Octet ForteBio), antibody on AHC probe, ROR1 ECD in solution. Here is the method: The dynamic affinities of 19F6_Hu35V1, 3D8_HuC24, 38F8_Hu57 and the positive control PGP-1501 antibody UC961 to human ROR1 ECD protein were determined by Octet ForteBio method.

For test [4], the target named is T2, human ROR1 (on the cell surface) (human, UniProt Q01973 30-937).
T2 construct: whole, on cells; Ba/F3 cells carry it by lentiviral transduction; also called Ba/F3-ROR1; ROR1 on the surface of human cells
T2 sequence (Q01973 30-937): as above
Put plainly: flow cytometry, A549 cells. Here is the method:
(§1) The affinities of 19F6_Hu35V1, 3D8_HuC24 and 38F8_Hu57 to ROR1 on the surface of human cells were determined by flow cytometry.
(§2) In addition to Ba/F3-ROR1 overexpression cells, human mantle cell lymphoma cell line Jeko-1 (Nanjing Cobioer Biosciences), human colon cancer cell line HT-29 (the Cell Bank of the Chinese Academy of Sciences), human lung cancer cell line A549 (the Cell Bank of the China Academy of Sciences) were also used for flow cytometry analysis. Anti-ROR1 antibody UC961 (the VH and VL of antibody UC961 were SEQ ID NO: 5 and 6 disclosed in WO2018237335A1, respectively) and anti-TNP antibody were used as positive control and negative control, respectively. Ba/F3-ROR1, Jeko-1, HT-29 and A549 cells were incubated with different concentration gradients of the purified humanized antibodies on ice for 30 minutes, respectively, washed with flow buffer (PBS+2% FBS) twice, then incubated with goat anti-human fluorescent secondary antibody (Jackson ImmunoResearch) on ice for 30 minutes, and finally loaded on the machine for detection.

In test [5] the target is T2, human ROR1 (on the cell surface). Nature of the test: flow cytometry, A549 cells. The procedure: as §1, §2
The source holds these as a separate data set.

The target is the same in test [6]. Put plainly: flow cytometry, A549 cells. The procedure:
as §1, §2
The source holds these as a separate data set.

For test [7] the target is unchanged. Put plainly: flow cytometry, HT-29 cells. The procedure:
as §1, §2

Test [8] shares this target. Nature of the test: flow cytometry, HT-29 cells. Here is the method: as §1, §2
This is another data set of the same source.

For test [9] the target is unchanged. Nature of the test: flow cytometry, HT-29 cells. The procedure:
as §1, §2
The source holds these as a separate data set.

The target is the same in test [10]. Put plainly: flow cytometry, Jeko-1 cells.
Test [11] has the same target. Nature of the test: flow cytometry, Jeko-1 cells. The procedure: as §1, §2
The source holds these as a separate data set.

Test [12] has the same target. Nature of the test: flow cytometry, Jeko-1 cells. Here is the method: as §1, §2
The source holds these as a separate data set.

The target is the same in test [13]. Nature of the test: flow cytometry, Ba/F3-ROR1 cells. The procedure:
as §1, §2

For test [14] the target is unchanged. Put plainly: flow cytometry, Ba/F3-ROR1 cells. Here is the method:
as §1, §2
The source holds these as a separate data set.

Test [15] shares this target. Put plainly: flow cytometry, Ba/F3-ROR1 cells. Here is the method: as §1, §2
This is another data set of the same source.

The target in test [16] is T1, human ROR1 ECD protein. Put plainly: BLI (Octet ForteBio), antibody on AHC probe, ROR1 ECD in solution, 1:1 model; average of three determinations.

Chain of human ROR1 ECD protein (Homo sapiens, UniProt Q01973) (Q01973 30-406 limits assumed): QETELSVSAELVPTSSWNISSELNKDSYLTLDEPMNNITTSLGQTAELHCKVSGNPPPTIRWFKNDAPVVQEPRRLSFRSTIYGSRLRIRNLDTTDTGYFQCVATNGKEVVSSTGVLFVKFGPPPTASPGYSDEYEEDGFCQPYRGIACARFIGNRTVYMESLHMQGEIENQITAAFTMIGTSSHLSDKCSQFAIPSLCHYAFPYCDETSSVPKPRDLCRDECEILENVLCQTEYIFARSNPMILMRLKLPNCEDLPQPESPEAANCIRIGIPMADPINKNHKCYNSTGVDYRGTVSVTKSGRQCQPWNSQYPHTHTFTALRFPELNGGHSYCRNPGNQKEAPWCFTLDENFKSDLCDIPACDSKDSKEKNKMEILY
T1 sequence (Q01973 30-406): as the sequence (Q01973 30-406 limits assumed) above

B1: 3D8_HuC24: humanized anti-ROR1 antibody; VH SEQ ID NO:9, VL SEQ ID NO:10, human IgG1 heavy and kappa light chain constant regions (antibody, V domains shown)
VH: EVQLVESGGGLVQPGGSLRLSCAASGFTFSSYAMSWVRQAPGKGLEWVASINSGGSTYYPDSVKGRFTISRDNAKNSLYLQMNSLRAEDTAVYYCARVNYYGYGDYAMDYWGQGTLVTVSS
VL: DIQMTQSPSSLSASVGDRVTITCQASQDISNYLTWFQQKPGKSPKTLIHRANRLVTGVPSRFSGSGSGTDFTFTISSLQPEDIATYYCLQYDEFPYTFGGGTKVEIK
modifications: human IgG1 and kappa constant regions; 3D8_HuC24 VH; 3D8_HuC24 VL
Turning to B1, in the test with human ROR1 ECD protein [1], the “kdis” value was found to be 0.0153 s⁻¹ and the “kon” value came to 586000 M⁻¹ s⁻¹. For the same molecule, the “affinity versus control antibody UC961” value with human ROR1 ECD protein [1] (versus UC961) is “comparable”.

B2: 38F8_Hu57: humanized anti-ROR1 antibody; VH SEQ ID NO:17, VL SEQ ID NO:18, human IgG1 heavy and kappa light chain constant regions (antibody, V domains shown)
VH: EVQLVESGGGLVQPGGSLRLSCAASGFTFSNYAMSWVRQAPEKRLEWVASISSGGPTYYPDSVKGRFTVSRDNSKNTLYLQMNSLRAEDTAVYYCARGYRYDVNWYFDVWGAGTMVTVSS
VL: DIQMTQSPSSLSASVGDRVTITCQASQDISNYLTWFQQKPGKSPKTLIHRANRLVTGVPSRFSGSGSGTDYTFTISSLQPEDIAIYYCLQYDEFPYTFGGGTKVEIK
modifications: human IgG1 and kappa constant regions; 38F8_Hu57 VH; 38F8_Hu57 VL
Turning to B2, in the test with human ROR1 ECD protein [1], the “kdis” value came out at 0.00242 s⁻¹ and the “kon” value turned out to be 241000 M⁻¹ s⁻¹. Moreover, the “affinity versus control antibody UC961” value in the test with human ROR1 ECD protein [1] (versus UC961) is recorded as “comparable”.

B3: Anti-human ROR1 antibody D10 (antibody, from another filing, V domains shown)
VH: QVQLKESGPGLVAPSQTLSITCTVSGFSLTSYGVHWVRQPPGKGLEWLGVIWAGGFTNYNSALKSRLSISKDNSKSQVLLKMTSLQTDDTAMYYCARRGSSYSMDYWGQGTSVIVSS
VL: EIVLSQSPAITAASLGQKVTITCSASSNVSYIHWYQQRSGTSPRPWIYEISKLASGVPVRFSGSGSGTSYSLTISSMEAEDAAIYYCQQWNYPLITFGSGTKLEIQ
For B3, the positive rate in test [2] turned out to be 100%.

B4: 19F6_Hu35V1 (antibody, human IgG1, kappa, V domains shown)
VH: QVQLQESGPGLVKPSQTLSLTCTVSGYSITSDYAWNWIRQFPGKGLEWIGYISYSGSIRYNPSLKSRVTISRDTSKNQFSLKLSSVTAADTAVYYCARGEITYYFDYWGQGTLVTVSS
VL: ETTLTQSPAFMSATPGDKVTISCKASTSIDDDMNWYQQKPGEPPKLIISEGNTLRPGIPPRFSSSGYGTDFTFTINKIKSEDAATYYCLQSNDLPLTFGQGTKLEIKR
notes: Humanized anti-human ROR1 antibody, human IgG1/kappa, expressed in Expi293F cells and purified with Protein A
Consider B4, for which the “fold stronger affinity (KD) than control antibody UC961” value with human ROR1 ECD protein [3] amounted to 5.4 fold.

B5: 19F6_Hu35V1: humanized anti-ROR1 antibody; VH SEQ ID NO:1, VL SEQ ID NO:2, human IgG1 heavy and kappa light chain constant regions (antibody, V domains shown)
VH: QVQLQESGPGLVKPSQTLSLTCTVSGYSITSDYAWNWIRQFPGKGLEWIGYISYSGSIRYNPSLKSRVTISRDTSKNQFSLKLSSVTAADTAVYYCARGEITYYFDYWGQGTLVTVSS
VL: ETTLTQSPAFMSATPGDKVTISCKASTSIDDDMNWYQQKPGEPPKLIISEGNTLRPGIPPRFSSSGYGTDFTFTINKIKSEDAATYYCLQSNDLPLTFGQGTKLEIK
modifications: human IgG1 and kappa constant regions; 19F6_Hu35V1 VH; 19F6_Hu35V1 VL
Take B5: in the test with human ROR1 ECD protein [1], the “kdis” value is 0.000863 s⁻¹ and the “kon” value was 538000 M⁻¹ s⁻¹. For the same molecule, the “dissociation rate versus control antibody UC961 (as shown by the Kdis value)” value with human ROR1 ECD protein [1] (versus UC961) was “significantly slower”.

B6: Anti-ROR1 antibody UC961 (antibody, V domains shown)
VH: QVQLQESGPGLVKPSQTLSLTCTVSGYAFTAYNIHWVRQAPGQGLEWMGSFDPYDGGSSYNQKFKDRLTISKDTSKNQVVLTMTNMDPVDTATYYCARGWYYFDYWGHGTLVTVSS
VL: DIVMTQTPLSLPVTPGEPASISCRASKSISKYLAWYQQKPGQAPRLLIYSGSTLQSGIPPRFSGSGYGTDFTLTINNIESEDAAYYFCQQHDESPYTFGEGTKVEIK
On to B6, for which the EC50 was found to be 0.16 nM in [4]; 0.46 nM in test [5]; 0.21 nM in test [6]; 0.2 nM in test [7]; 0.21 nM in [8]; 0.37 nM in test [9]. The EC50 was 0.36 nM in [10]; 0.14 nM in [11]; 0.06 nM in test [12]; 0.3 nM in test [13]; 0.31 nM in test [14]; 1.07 nM in test [15]. Further, the Kd with human ROR1 ECD protein [16] turned out to be 8.73 nM. In addition, in the test with human ROR1 ECD protein [16], the koff was determined as 0.0112 s⁻¹. Also, the kon in the test with human ROR1 ECD protein [16] was found to be 1.26e+06 M⁻¹ s⁻¹.
